For 2 molecules, Kd results are on record in patent publication US20100119450A1 (published 2010).

The target in experiment [1] is T1, amyloid-β peptide Aβ1-40 (wild-type) (UniProt P05067 672-711).
T1 construct: domain: Aβ1-40; Soluble monomeric synthetic peptide; used 125I-labeled as tracer in capillary and in vivo studies; also called Aβ40; wild-type Aβ1-40
Put plainly: SPR (BIACORE X), LRP-1 cluster immobilized on CM5 chip, Aβ in solution; apparent Kd from koff/kon. Here is the method: (§1) Incubation conditions as described under Materials and Methods. […] Apparent affinity constants K_{d(app)} were deduced from the ratios of k_{off(app)}/kₒₙ₍ₐₚₚ₎ as described under Materials and Methods. […] K_{d(app)} (mean±SD) values were determined from 6 to 9 different concentrations of Aβ and 3 to 5 independent measurements at each concentration.
(§2) (as described in Westein et al., 2002). […] Ligand solution was replaced with buffer to initiate dissociation. The data were analyzed to calculate apparent association rate constants kₒₙ₍ₐₚₚ₎ and apparent dissociation rate constants k_{off(app)} using a single-site binding model (as described in Westein et al., 2002). Apparent affinity constants K_{d(app)} were inferred from the ratio k_{off(app)}/kₒₙ₍ₐₚₚ₎. Data are based on three to five measurements using six to nine different concentrations for each measurement. Data are presented as the mean±SEM. Analysis was performed using BIACORE X biosensor system (Uppsala, Sweden) and BIA evaluation 3.0 software (Biocore, Sweden).

Experiment [2] addresses T2, amyloid-β peptide Aβ1-42 (wild-type) (UniProt P05067 672-713).
T2 construct: domain: Aβ1-42; Synthetic peptide; also called Aβ42
The description is as above. Here is the method:
as §1, §2

B1: recombinant LRP-1 fragment encompassing cluster II (receptor, UniProt Q07954 805-1184, looked up)
chain: NKCRVNNGGCSSLCLATPGSRQCACAEDQVLDADGVTCLANPSYVPPPQCQPGEFACANSRCIQERWKCDGDNDCLDNSDEAPALCHQHTCPSDRFKCENNRCIPNRWLCDGDNDCGNSEDESNATCSARTCPPNQFSCASGRCIPISWTCDLDDDCGDRSDESASCAYPTCFPLTQFTCNNGRCININWRCDNDNDCGDNSDEAGCSHSCSSTQFKCNSGRCIPEHWTCDGDNDCGDYSDETHANCTNQATRPPGGCHTDEFQCRLDGLCIPLRWRCDGDTDCMDSSDEKSCEGVTHVCDPSVKFGCKDSARCISKAWVCDGDNDCEDNSDEENCESLACRPPSHPCANNTSVCLPPDKLCDGNDDCGDGSDEGELCDQ
notes: domain: cluster II; Produced in stably transfected baby hamster kidney cells as described in Westein et al., 2002; immobilized on CM5 chip; also called LRP-1 cluster II; LRP-1 II
On to B1, for which the Kd came out at 0.57 nM in experiment [1] and 3 nM in experiment [2].

B2: recombinant LRP-1 fragment encompassing cluster IV (receptor)
chain: not shown
notes: domain: cluster IV; Produced in stably transfected baby hamster kidney cells as described in Westein et al., 2002; immobilized on CM5 chip; also called LRP-1 cluster IV; LRP-1 IV
Turning to B2, the results for the Kd in experiment [1] and in experiment [2] were 1.24 nM and 10.1 nM, respectively.
